Measurements published in patent US20020160955A1 (published 2002).
Numbering of substitutions follows the chain as printed.

What was measured:
Assay in all cases: competitive phage ELISA
[1] = target: T1, IGF-I K68A (G1S-A70V background) displayed on phage (human; bacteriophage M13, UniProt P69168 267-424)
T1 chain: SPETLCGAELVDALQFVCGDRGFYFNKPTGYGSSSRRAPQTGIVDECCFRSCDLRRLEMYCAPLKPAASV
Summary of the method: (§1)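 Phage, normalized to a maximal ELISA signal of 0.2-0.4 per mutant, were premixed with threefold serial dilutions of soluble competitor in 0.5% Tween 20/PBS and incubated 1 h at room temperature on immobilized target.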

[2] = target: IGF-I V70A (G1S-A70V background) displayed on phage (human; bacteriophage M13, UniProt P69168 267-424)
Summary of the method: as §1

[3] = target: T2, IGF-I E3A (G1S-A70V background) displayed on phage (human; bacteriophage M13, UniProt P69168 267-424)
T2 chain: T1 chain with E3A, A68K
Summary of the method: as §1

[4] = target: T3, IGF-I G30A (G1S-A70V background) displayed on phage (human; bacteriophage M13)
T3 construct: monovalent M13 phage display; not shown: M13 gene III fragment (residues 249-406, display partner) and the junction to it
T3 chain: T1 chain with G30A, A68K
Summary of the method: as §1

[5] = target: T4, IGF-I Y31A (G1S-A70V background) displayed on phage (human; bacteriophage M13)
T4 construct: monovalent M13 phage display; not shown: M13 gene III fragment (residues 249-406, display partner) and the junction to it
T4 chain: T1 chain with Y31A, A68K
Summary of the method: as §1

[6] = target: T5, IGF-I S33A (G1S-A70V background) displayed on phage (human; bacteriophage M13)
T5 construct: monovalent M13 phage display; not shown: M13 gene III fragment (residues 249-406, display partner) and the junction to it
T5 chain: T1 chain with S33A, A68K
Summary of the method: as §1

[7] = target: T6, IGF-I I43A (G1S-A70V background) displayed on phage (human; bacteriophage M13)
T6 construct: monovalent M13 phage display
T6 chain: T1 chain with I43A, A68K
Summary of the method: as §1

[8] = target: T7, IGF-I V44A (G1S-A70V background) displayed on phage (human; bacteriophage M13)
T7 construct: monovalent M13 phage display
T7 chain: T1 chain with V44A, A68K
Summary of the method: as §1

[9] = target: T8, IGF-I E46A (G1S-A70V background) displayed on phage (human; bacteriophage M13)
T8 construct: monovalent M13 phage display
T8 chain: T1 chain with E46A, A68K
Summary of the method: as §1

[10] = target: T9, IGF-I S51A (G1S-A70V background) displayed on phage (human; bacteriophage M13)
T9 construct: monovalent M13 phage display
T9 chain: T1 chain with S51A, A68K
Summary of the method: as §1

[11] = target: T10, IGF-I R55A (G1S-A70V background) displayed on phage (human; bacteriophage M13)
T10 construct: monovalent M13 phage display
T10 chain: T1 chain with R55A, A68K
Summary of the method: as §1

[12] = target: T11, IGF-I R56A (G1S-A70V background) displayed on phage (human; bacteriophage M13)
T11 construct: monovalent M13 phage display
T11 chain: T1 chain with R56A, A68K
Summary of the method: as §1

[13] = target: T12, IGF-I M59A (G1S-A70V background) displayed on phage (human; bacteriophage M13)
T12 construct: monovalent M13 phage display; not shown: M13 gene III protein fragment (residues 249-406), the phage display carrier, and its junction to IGF-I
T12 chain: T1 chain with M59A, A68K
Summary of the method: as §1

[14] = target: T13, IGF-I Y60A (G1S-A70V background) displayed on phage (human; bacteriophage M13)
T13 construct: monovalent M13 phage display; not shown: M13 gene III protein fragment (residues 249-406), the phage display carrier, and its junction to IGF-I
T13 chain: T1 chain with Y60A, A68K
Summary of the method: as §1

[15] = target: T14, IGF-I P63A (G1S-A70V background) displayed on phage (human; bacteriophage M13)
T14 construct: monovalent M13 phage display; not shown: M13 gene III protein fragment (residues 249-406), the phage display carrier, and its junction to IGF-I
T14 chain: T1 chain with P63A, A68K
Summary of the method: as §1

[16] = target: T15, IGF-I P66A (G1S-A70V background) displayed on phage (human; bacteriophage M13)
T15 construct: monovalent M13 phage display; not shown: M13 gene III protein fragment (residues 249-406), the phage display carrier, and its junction to IGF-I
Summary of the method: as §1

B1: human IGFBP-1 (other, UniProt P08833 26-259, looked up)
chain: APWQCAPCSAEKLALCPPVSASCSEVTRSAGCGCCPMCALPLGAACGVATARCARGLSCRALPGEQQPLHALTRGQGACVQESDASAPHAAEAGSPESPESTEITEEELLDNFHLMAPSEEDHSILWDAISTYDGSKALHVTNIKKWKEPCRIELYRVVESLAKAQETSGEEISKFYLPNCNKNGFYHSRQCETSMDGEAGLCWCVYPWNGKRIPGSPEIRGDPNCQIYFNVQN
notes: secreted recombinant protein purified from conditioned medium
- IC50 [1]: 10.5 nM
- IC50 [2]: 19.1 nM
- IC50 [3]: 278 nM
- IC50 [4]: 7.1 nM
- IC50 [5]: 6.8 nM
- IC50 [6]: 9.1 nM
- IC50 [7]: 31.3 nM
- IC50 [8]: 18.8 nM
- IC50 [9]: 7.9 nM
- IC50 [10]: 13.4 nM
- IC50 [11]: 9 nM
- IC50 [12]: 13.1 nM
- IC50 [13]: 13.1 nM
- IC50 [14]: 6.6 nM
- IC50 [15]: > 1000 nM
- IC50 [16]: 9.4 nM
